Experimental data as given in patent US7329737 (DYAX, dated 2008).

T1: Human Tissue Kallikrein 8 (hK8) (human, UniProt O60259 33-260)
T1 sequence (looked up): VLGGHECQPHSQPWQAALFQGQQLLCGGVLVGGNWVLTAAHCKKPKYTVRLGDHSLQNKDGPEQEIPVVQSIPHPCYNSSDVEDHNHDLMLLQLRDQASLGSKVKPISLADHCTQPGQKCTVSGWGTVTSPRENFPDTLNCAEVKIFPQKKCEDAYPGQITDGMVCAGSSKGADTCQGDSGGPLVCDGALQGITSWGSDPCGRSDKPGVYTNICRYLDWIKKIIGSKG

T2: Human elastase (human, UniProt P08246 30-247)
T2 construct: also called Human Neutrophil Elastase
T2 sequence (looked up): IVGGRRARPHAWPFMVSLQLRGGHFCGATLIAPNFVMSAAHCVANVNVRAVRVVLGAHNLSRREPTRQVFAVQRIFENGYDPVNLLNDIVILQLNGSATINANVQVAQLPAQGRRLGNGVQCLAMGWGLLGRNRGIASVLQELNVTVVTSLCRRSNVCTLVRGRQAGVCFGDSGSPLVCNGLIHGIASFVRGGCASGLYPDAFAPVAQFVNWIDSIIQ

B1: M0102-H11 (Fab, V domains shown)
VH: EVQLLESGGGLVQPGGSLRLSCAASGFTFSKYPMTWVRQAPGKGLEWVSSISSSGGKTQYADSVKGRFTISRDNSKNTLYLQMNSLRAEDTAVYYCTRGGSSTLYFMDVWGQGTTVTVSS
VL: DIQMTQSPATLSLSPGERATLSCRASQSVSSYLAWYQQKPGQAPRLLIYGASSRATGIPDRFSGSGSGTDFTLTISSLEPEDFAVYYCQQRGGWPLTFGGGTKVEIRR
B2: M0134-D07 (Fab, V domains shown)
VH: EVQLLESGGGLVQPGGSLRLSCAASGFTFSRYFMIWVRQAPGKGLEWVSSIVPSGGPTRYADSVKGRFTISRDNSKNTLYLQMNSLRAEDTAVYYCARRGPVYYYDSSGSHSAFDIWGQGTMVTVSS
VL: DIQMTQSPSSLSASVGDRVTITCRASQGIRNDLGWYQQKPGKAPKLLIYAASSLQSGVPSRFSGSGSGTDFTLTISSLQPEDFATYYCLQDYNYPRTFGQGTKVEIKR
B3: M0117-F04 (Fab, V domains shown)
VH: EVQLLESGGGLVQPGGSLRLSCAASGFTFSMYVMNWVRQAPGKGLEWVSRIGSSGGGTLYADSVKGRFTISRDNSKNTLYLQMNSLRAEDTAVYYCARVSVYRIRNYYYYAMDVWGQGTTVTVSS
VL: DIQMTQSPSSLSASVGDRVTITCRASQGIGNYLAWYQQKPGKAPNLLIYKTSNLQSGVPSRFRGSGSGTEFTLTITSVQPDDFATYFCQRYDSYSQYIFGQGTKLETKR
B4: M0098-E09 (Fab, V domains shown)
VH: EVQLLESGGGLVQPGGSLRLSCAASGFTFSRYGMQWVRQAPGKGLEWVSYIYPSGGGTVYADSVKGRFTISRDNSKNTLYLQMNSLRAEDTAVYYCARRVAVAGSWYYYYYGMDVWGQGTTVTVSS
VL: DIQMTQSPSSVSASVGDSVTISCWTIYDISSWLAWYQQRPGQAPKLLIYAASRLATGVPSRFRGSGSGTDFTLTITNLQPEDVATYYCQQTKDFPLTFGGGTRVDLKR
B5: M0136-A07 (Fab, V domains shown)
VH: EVQLLESGGGLVQPGGSLRLSCAASGFTFSWYHMYWVRQAPGKGLEWVSYIRPSGGNTNYADSVKGRFTISRDNSKNTLYLQMNSLRAEDTAMYYCARDRRGYSSSKGYYYYGMDVWGQGTTVTVSS
VL: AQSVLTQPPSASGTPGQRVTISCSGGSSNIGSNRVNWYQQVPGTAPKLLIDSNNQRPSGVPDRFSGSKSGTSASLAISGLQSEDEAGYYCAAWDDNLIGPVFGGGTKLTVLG
notes: No HC-136-A07 entry is printed
B6: DX-2300 (format not stated) (antibody, V domains shown)
VH: EVQLLESGGGLVQPGGSLRLSCAASGFTFSKYKMVWVRQAPGKGLEWVSSIYPSGGITAYADSVKGRFTISRDNSKNTLYLQMNSLRAEDTAMYYCAKDITPGGGSGFRLPKNYYYYGMDVWGQGTTVTVSS
VL: not shown
B7: M0102-G12 (Fab, V domains shown)
VH: EVQLLESGGGLVQPGGSLRLSCAASGFTFSKYKMVWVRQAPGKGLEWVSSIYPSGGITAYADSVKGRFTISRDNSKNTLYLQMNSLRAEDTAMYYCAKDITPGGGSGFRLPKNYYYYGMDVWGQGTTVTVSS
VL: AQSELTQPPSASGTPGQRVTISCSGTLSNIGTNIVSWFQQLPGTAPKLLIYNDHRRPSGVPDRFSGSKSATSASLAISGLQSEDEADYYCAAWDDSLNGVVFGGGTKLTVLS
B8: DX-2300 (M0131-F07), Fab (Fab, V domains shown)
VH: EVQLLESGGGLVQPGGSLRLSCAASGFTFSKYKMVWVRQAPGKGLEWVSSIYPSGGITAYADSVKGRFTISRDNSKNTLYLQMNSLRAEDTAMYYCAKDITPGGGSGFRLPKNYYYYGMDVWGQGTTVTVSS
VL: not shown
B9: M0112-D07 (Fab, V domains shown)
VH: EVQLLESGGGLVQPGGSLRLSCAASGFTFSFYSMSWVRQAPGKGLEWVSRIRPSGGRTDYADSVKGRFTISRDNSKNTLYLQMNSLRAEDTAVYYCARDRLYYYGSGSYYYGAFDIWGQGTMVTVSS
VL: DIQMTQSPSSLSASVGDRVTITCRASQTIRTYLNWYQQKPGIAPKFLIYDASNLQTGVPSRFSGSGSGTHFTLTISSLQPEDFGTYYCQQSYGGPPTFGRGTKIEIKR
B10: M0093-F09 (Fab, V domains shown)
VH: EVQLLESGGGLVQPGGSLRLSCAASGFTFSDYRMWWVRQAPGKGLEWVSYIVPSGGQTSYADSVKGRFTISRDNSKNTLYLQMNSLRAEDTAVYYCARGSAYQRRTYSSGWYSASGRRGTAEYFQHWGQGTLVTVSS
VL: AQSALTQPASVSGSPGQSITISCTGTSTDDVGGYNYVSWYQQHPGKAPKLMIYDVINRPSGVSNRFSGSKSGNTASLTISGLQAEDEADYYCSSYTSRGTRVFGTGTKVTVLG
notes: also called M093-F09
B11: M0139-A09 (Fab, V domains shown)
VH: EVQLLESGGGLVQPGGSLRLSCAASGFTFSWYFMVWVRQAPGKGLEWVSGIGPSGGLTTYADSVKGRFTISRDNSKNTLYLQMNSLRAEDTAVYYCARSDWLNYWGQGTLVTVSS
VL: DIVMTQTPPSLPVNPGEPASISCRSSQSLVYSDGNTYLNWFQQRPGQSPRRLIYKVSNRDSGVPDRFSGSGSGTDFTLKISRVEAEDVGVYYCMQGTHWQRLTFGGGTKVEIKR
B12: M0114-G06 (Fab, V domains shown)
VH: EVQLLESGGGLVQPGGSLRLSCAASGFTFSYYEMEWVRQAPGKGLEWVSSIRPSGGRTVYADSVKGRFTISRDNSKNTLYLQMNSLRAEDTAVYYCAKGRSNYYGSGSYSPKYFQHWGQGTLVTVSS
VL: DIQMTQSPSSLSASVGDRVTITCRASQGISSWLAWYQQRPERAPKSLIYAASSLERGVPSRFRGSGSGTDFTLTISSLQPEDFGTYYCQQYHNFPLTFGGGTRVEINR

How the values were obtained:
[1] = target: T3, hK1 (human tissue kallikrein 1), recombinant (human, UniProt P06870 25-262); test: SPR
T3 construct: Expressed in P. pastoris from KLK1 cDNA and purified; enzymatically active; also called KLK1; Recombinant (Pichia) Kallikrein

[2] = target: T3, hK1 (human tissue kallikrein 1), …; test: cell-based or functional assay
[3] = target: T3, hK1 (human tissue kallikrein 1), …; test: SPR, biotinylated hK1 on streptavidin chip; Fab 50 nM after DX-2300 50 nM (competitor DX-2300)
Description: Epitope grouping by SPR. Biotinylated hK1 was captured on a streptavidin coated chip to a final ligand density of 88 RU. […] The signal at the end of the injection of the Fab alone is R2.

[4] = target: kallikrein-like activity in sheep urine (tissue kallikrein, K1) (sheep); test: cell-based or functional assay
[5] = target: Human Tissue Kallikrein 2 (hK2) (human, UniProt P20151 25-261); test: protease inhibition assay, Fab up to 1 µM;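 also: protease and Fab preincubated 1 h at room temperature, then substrate added, fluorescence plate-reader monitoring of substrate hydrolysis rate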
Protocol: (§1) Selected antibodies were tested for their ability to inhibit other proteases.
(§2) Assays were performed in black, 96 well, round bottomed microplates in a total volume of 100 μL. Enzyme and Fab inhibitor were incubated in the dark at room temperature for 1 hour prior to the addition of the indicated amount of substrate. The rate of enzymatic substrate hydrolysis was then monitored using the Spectramax Gemini XS fluorescence plate reader using the wavelengths listed in Table 3.

[6] = target: Human Tissue Kallikrein 3 (hK3, PSA) (human, UniProt P07288 25-261); test: protease inhibition assay, Fab up to 1 µM;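 also: protease and Fab preincubated 1 h at room temperature, then substrate added, fluorescence plate-reader monitoring of substrate hydrolysis rate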
Protocol: as §1, §2

[7] = target: Human Tissue Kallikrein 4 (hK4) (human, UniProt Q9Y5K2 31-254); test: protease inhibition assay, Fab up to 1 µM;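 also: protease and Fab preincubated 1 h at room temperature, then substrate added, fluorescence plate-reader monitoring of substrate hydrolysis rate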
Protocol: as §1, §2

[8] = target: Human Tissue Kallikrein 5 (hK5) (human, UniProt Q9Y337 67-293, limits assumed); test: protease inhibition assay, Fab up to 1 µM;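 also: protease and Fab preincubated 1 h at room temperature, then substrate added, fluorescence plate-reader monitoring of substrate hydrolysis rate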
Protocol: as §1, §2

[9] = target: T1, Human Tissue Kallikrein 8 (hK8); test: protease inhibition assay, Fab up to 1 µM
Protocol: as §1, §2

Human plasma kallikrein = Human plasma kallikrein (human, UniProt P03952 20-638); test: protease inhibition assay, Fab up to 1 µM
Protocol: as §1, §2

Human plasmin = Human plasmin (human, UniProt P00747 97-810); test: protease inhibition assay, Fab up to 1 µM
Protocol: as §1, §2

Human urokinase = Human urokinase (human, UniProt P00749 21-431, limits assumed); test: protease inhibition assay, Fab up to 1 µM
Protocol: as §1, §2

Human trypsin = target: T4, Human trypsin (human, UniProt P07477 24-247); test: protease inhibition assay, Fab up to 1 µM
T4 construct: also called Human Pancreatic Trypsin
Protocol: as §1, §2

Human elastase = target: T2, Human elastase; test: protease inhibition assay, Fab up to 1 µM
Protocol: as §1, §2

[10] = target: Human activated protein kinase C (human); test: protease inhibition assay, Fab up to 1 µM
Protocol: as §1, §2

Human chymotrypsin = Human chymotrypsin (human, UniProt P17538 19-263); test: protease inhibition assay, Fab up to 1 µM
Protocol: as §1, §2

Human thrombin = Human thrombin (human, UniProt P00734 328-622); test: protease inhibition assay, Fab up to 1 µM
Protocol: as §1, §2

[11] = target: T3, hK1 (human tissue kallikrein 1), …; test: enzyme inhibition, tight-binding analysis, noncompetitive; Fab

Sequence of Human plasmin (P00747 97-810 limits assumed): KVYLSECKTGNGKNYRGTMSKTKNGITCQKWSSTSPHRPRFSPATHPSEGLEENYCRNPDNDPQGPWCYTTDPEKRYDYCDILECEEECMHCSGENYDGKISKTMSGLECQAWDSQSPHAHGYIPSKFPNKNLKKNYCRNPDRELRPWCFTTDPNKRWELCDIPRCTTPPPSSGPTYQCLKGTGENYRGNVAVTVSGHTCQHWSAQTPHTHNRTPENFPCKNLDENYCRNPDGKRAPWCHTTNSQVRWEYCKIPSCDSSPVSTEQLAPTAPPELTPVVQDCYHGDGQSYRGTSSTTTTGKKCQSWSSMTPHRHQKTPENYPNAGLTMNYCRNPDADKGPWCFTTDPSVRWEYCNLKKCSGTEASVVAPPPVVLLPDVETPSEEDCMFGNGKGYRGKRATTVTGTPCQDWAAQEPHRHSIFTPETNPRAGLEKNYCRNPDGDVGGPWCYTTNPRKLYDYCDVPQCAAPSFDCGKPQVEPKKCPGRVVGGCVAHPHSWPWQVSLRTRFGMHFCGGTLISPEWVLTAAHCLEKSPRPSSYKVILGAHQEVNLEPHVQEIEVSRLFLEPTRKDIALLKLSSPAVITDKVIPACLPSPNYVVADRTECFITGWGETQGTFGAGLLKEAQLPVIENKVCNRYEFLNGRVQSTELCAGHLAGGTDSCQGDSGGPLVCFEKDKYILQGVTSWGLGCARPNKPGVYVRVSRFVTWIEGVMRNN
Sequence of Human Tissue Kallikrein 5 (hK5) (Q9Y337 67-293 limits assumed): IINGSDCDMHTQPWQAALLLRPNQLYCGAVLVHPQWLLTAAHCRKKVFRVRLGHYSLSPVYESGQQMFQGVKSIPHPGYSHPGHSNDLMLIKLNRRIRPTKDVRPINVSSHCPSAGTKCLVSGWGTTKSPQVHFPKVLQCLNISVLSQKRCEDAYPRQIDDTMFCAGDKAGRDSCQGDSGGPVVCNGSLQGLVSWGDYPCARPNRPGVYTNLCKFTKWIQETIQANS
Sequence of Human Tissue Kallikrein 3 (hK3, PSA) (P07288 25-261 limits assumed): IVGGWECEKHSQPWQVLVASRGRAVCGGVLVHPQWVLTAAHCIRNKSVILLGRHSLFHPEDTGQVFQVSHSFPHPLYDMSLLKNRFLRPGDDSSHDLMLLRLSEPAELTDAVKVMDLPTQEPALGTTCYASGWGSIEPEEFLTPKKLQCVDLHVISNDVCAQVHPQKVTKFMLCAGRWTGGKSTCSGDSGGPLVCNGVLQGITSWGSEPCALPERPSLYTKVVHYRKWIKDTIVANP
Sequence of Human plasma kallikrein (P03952 20-638 limits assumed): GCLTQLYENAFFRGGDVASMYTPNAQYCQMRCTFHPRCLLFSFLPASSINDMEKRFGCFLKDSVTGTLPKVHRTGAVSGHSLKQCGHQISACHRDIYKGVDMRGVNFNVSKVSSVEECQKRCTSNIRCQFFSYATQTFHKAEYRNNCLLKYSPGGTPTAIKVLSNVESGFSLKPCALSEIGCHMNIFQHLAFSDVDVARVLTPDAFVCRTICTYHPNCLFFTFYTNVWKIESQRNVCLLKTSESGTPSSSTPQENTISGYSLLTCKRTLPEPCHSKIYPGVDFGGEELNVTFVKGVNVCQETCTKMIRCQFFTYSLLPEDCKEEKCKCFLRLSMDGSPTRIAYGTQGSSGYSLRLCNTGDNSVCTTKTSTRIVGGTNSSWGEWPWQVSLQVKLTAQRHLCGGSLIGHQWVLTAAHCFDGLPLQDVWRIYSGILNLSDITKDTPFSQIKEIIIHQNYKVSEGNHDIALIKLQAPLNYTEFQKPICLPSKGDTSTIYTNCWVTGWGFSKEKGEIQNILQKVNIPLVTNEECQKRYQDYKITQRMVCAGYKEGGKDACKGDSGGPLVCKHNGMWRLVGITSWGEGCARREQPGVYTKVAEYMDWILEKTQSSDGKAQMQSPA
Sequence of Human chymotrypsin (P17538 19-263): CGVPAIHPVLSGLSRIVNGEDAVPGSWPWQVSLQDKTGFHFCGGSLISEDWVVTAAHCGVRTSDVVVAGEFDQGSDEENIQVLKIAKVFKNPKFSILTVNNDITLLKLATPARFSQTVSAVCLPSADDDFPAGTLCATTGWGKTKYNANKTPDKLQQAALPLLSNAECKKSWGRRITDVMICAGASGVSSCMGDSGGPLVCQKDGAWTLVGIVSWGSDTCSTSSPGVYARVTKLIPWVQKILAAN
Sequence of Human Tissue Kallikrein 2 (hK2) (P20151 25-261 limits assumed): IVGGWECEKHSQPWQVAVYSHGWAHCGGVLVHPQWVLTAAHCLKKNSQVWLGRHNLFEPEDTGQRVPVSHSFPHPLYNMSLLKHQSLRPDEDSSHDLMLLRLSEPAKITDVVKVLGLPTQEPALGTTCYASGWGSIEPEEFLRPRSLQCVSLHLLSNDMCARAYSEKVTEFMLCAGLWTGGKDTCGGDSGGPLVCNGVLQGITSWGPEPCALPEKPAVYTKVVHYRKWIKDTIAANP
Sequence of Human Tissue Kallikrein 4 (hK4) (Q9Y5K2 31-254 limits assumed): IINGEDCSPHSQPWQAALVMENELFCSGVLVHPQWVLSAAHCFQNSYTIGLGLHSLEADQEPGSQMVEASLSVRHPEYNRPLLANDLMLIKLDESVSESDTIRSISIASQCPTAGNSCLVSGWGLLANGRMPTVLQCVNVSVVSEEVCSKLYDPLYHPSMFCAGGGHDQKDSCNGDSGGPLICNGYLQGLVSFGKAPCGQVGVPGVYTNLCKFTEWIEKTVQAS
Sequence of Human activated protein kinase C (human) (P04070 43-197, chain 1 of 2): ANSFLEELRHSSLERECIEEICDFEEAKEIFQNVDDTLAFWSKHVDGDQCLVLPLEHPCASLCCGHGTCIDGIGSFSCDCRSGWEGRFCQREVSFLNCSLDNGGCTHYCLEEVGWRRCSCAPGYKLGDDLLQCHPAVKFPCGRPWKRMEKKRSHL
Sequence of Human activated protein kinase C (human) (P04070 212-461, chain 2 of 2): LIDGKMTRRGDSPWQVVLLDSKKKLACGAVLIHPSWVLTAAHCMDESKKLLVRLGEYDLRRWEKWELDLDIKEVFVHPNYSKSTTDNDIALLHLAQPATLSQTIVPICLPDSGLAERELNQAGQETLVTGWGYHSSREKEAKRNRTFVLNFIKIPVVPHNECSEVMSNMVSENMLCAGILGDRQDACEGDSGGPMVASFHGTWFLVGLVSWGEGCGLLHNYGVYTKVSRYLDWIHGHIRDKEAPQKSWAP

Row | Kd [1] | koff [1] | kon [1] | IC50 (nM), inhibition of hK1 hydrolysis of Pro-Phe-Arg-AMC [2] | Fab Signal following DX-2300 (R1) [3] | other results | Binder
1 | 3.24 nM | 0.00741 s⁻¹ | 2.29e+06 M⁻¹ s⁻¹ | 4.5 nM | – | – | B1
2 | 2.69 nM | 0.000138 s⁻¹ | 51300 M⁻¹ s⁻¹ | 10.1 nM | 2.3 | – | B2
3 | 6.61 nM | 0.00197 s⁻¹ | 298000 M⁻¹ s⁻¹ | 5.2 nM | 6.7 | – | B3
4 | 1.91 nM | 0.00159 s⁻¹ | 836000 M⁻¹ s⁻¹ | 2.5 nM | 8.5 | – | B4
5 | 7.98 nM | 0.00258 s⁻¹ | 323000 M⁻¹ s⁻¹ | – | 5 | IC50 (nM), inhibition of hK1 enzyme activity [2]: 25 nM | B5
6 | – | – | – | – | – | IC50 of kallikrein-like activity in activated urine (Pro-Phe-Arg-AMC) [4]: 2.9 nM | B6
7 | 5.28 nM | 0.000442 s⁻¹ | 83700 M⁻¹ s⁻¹ | 3.3 nM | – | – | B7
8 | – | – | – | – | – | Ki [5]: > 1000 nM; Ki [6]: > 1000 nM; Ki [7]: > 1000 nM; Ki [8]: > 1000 nM; Ki [9]: > 1000 nM; Ki (Human plasma kallikrein): > 1000 nM; Ki (Human plasmin): > 1000 nM; Ki (Human urokinase): > 1000 nM; Ki (Human trypsin): > 1000 nM; Ki (Human elastase): > 1000 nM; Ki [10]: > 1000 nM; Ki (Human chymotrypsin): > 1000 nM; Ki (Human thrombin): > 1000 nM | B8
9 | 5.81 nM | 0.000781 s⁻¹ | 134000 M⁻¹ s⁻¹ | – | 3 | IC50 (nM), inhibition of hK1 enzyme activity [2]: > 120 nM | B9
10 | 4.66 nM | 0.00279 s⁻¹ | 600000 M⁻¹ s⁻¹ | 2.5 nM | 5.9 | Ki [5]: > 1000 nM; Ki [6]: > 1000 nM; Ki [7]: > 1000 nM; Ki [8]: > 1000 nM; Ki [9]: > 1000 nM; Ki (Human plasma kallikrein): > 1000 nM; Ki (Human plasmin): > 1000 nM; Ki (Human urokinase): > 1000 nM; Ki (Human trypsin): > 1000 nM; Ki (Human elastase): > 1000 nM; Ki (Human chymotrypsin): > 1000 nM; Ki (Human thrombin): > 1000 nM; Ki [11]: 1.9 nM | B10
11 | 5.48 nM | 0.00106 s⁻¹ | 194000 M⁻¹ s⁻¹ | – | 25.7 | IC50 (nM), inhibition of hK1 enzyme activity [2]: 34 nM | B11
12 | 0.999 nM | 0.000166 s⁻¹ | 167000 M⁻¹ s⁻¹ | 1.2 nM | 4.8 | – | B12
